Source: patent publication US9284543B2, “Neutral active soluble truncated PH20 polypeptides and uses thereof” (Halozyme, Inc., priority 2008, dated 2016)
Each block holds one molecule with its values, some of them ahead of it.

Assays:
[1] = Hyaluronidase activity of N-glycan site specific deglycosylation mutants (biotinylated-HA assay); format: biochemical; details: media of transfected CHO-S cells
Procedure: In short, a 4×BH 96-well plate was coated with biotinylated-HA (1.1 MDa). The 72 hour post transfection supernatant from cells transfected with human PH20 hyaluronidase carboxy-terminus deletion mutants was diluted in buffer at either pH 7.4 or pH 5.5 and added to individual wells of the plate and allowed to incubate at 37° C. for 90 minutes. The reaction was terminated by addition of 4M guanidine HCl. The wells were washed 4× with Phosphate Buffered Saline with Tween20 (PBST) to remove any digested biotinylated-HA followed by addition of streptavidin-HRP for 1 hour at room temperature. The wells were washed 4× with PBST and the plate was developed with TMB. The plate was read at 450 nm using an ELISA plate reader. Hyaluronidase activity (in Units/mL) was determined by interpolating the measured absorbance at 450 nm with a hyaluronidase reference standard curve. Full length mature human PH20 hyaluronidase and untransfected CHO cells were used as positive and negative controls.
PH20sHis (SEQ ID NO:210) was used as a template for mutagenesis of each asparagine residue to alanine using QuikChange® Site-Directed Mutagenesis Kit (Cat No. 200518, Stratagene). […] Six single mutants were generated, one for each of the N-glycosylation sites. Additionally, three double mutants and a triple mutant were generated for asparagines N82, N166 and N254, all of which are occupied by complex type glycans. Finally, a double mutant N368A/N393A was generated, lacking high mannose glycans. The mutants were transfected into CHO—S cells and expression was performed as described in Example 2A. Secretion into the media and hyaluronidase activity were determined as described in Examples 3 and 5, above.

CHO-S cells = test: Western blot analysis of PH20 expression in media and cells after transient expression; format: cell-based, Chinese Hamster; details: media versus cells
Summary of the method: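 PH20 expression and solubility were judged by anti-PH20 Western blot of non-reduced media and cell fractions, with expression shown by a ~66 kDa band. Samples came from CHO-S cells transiently transfected (GeneJuice) with mutant PH20-HZ24 DNA and cultured 48-72 h. GPI-anchored mutants were cleaved with PI-PLC to release soluble protein.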

[2] = Microtiter hyaluronidase activity assay with biotinylated-hyaluronic acid; format: biochemical; details: Table 6, 72 hour post transfection supernatant

B2: N82A: PH20sHis N-glycosylation site mutant N82A, SEQ ID NO:202 (protein)
chain: MGVLKFKHIFFRSFVKSSGVSQIVFTFLLIPCCLTLNFRAPPVIPNVPFLWAWNAPSEFCLGKFDEPLDMSLFSFIGSPRIAATGQGVTIFYVDRLGYYPYIDSITGVTVNGGIPQKISLQDHLDKAKKDITFYMPVDNLGMAVIDWEEWRPTWARNWKPKDVYKNRSIELVQQQNVQLSLTEATEKAKQEFEKAGKDFLVETIKLGKLLRPNHLWGYYLFPDCYNHHYKKPGYNGSCFNVEIKRNDDLSWLWNESTALYPSIYLNTQQSPVAATLYVRNRVREAIRVSKIPDAKSPLPVFAYTRIVFTDQVLKFLSQDELVYTFGETVALGASGIVIWGTLSIMRSMKSCLLLDNYMETILNPYIINVTLAAKMCSQVLCQEQGVCIRKNWNSSDYLHLNPDNFAIQLEKGGKFTVRGKPTLEDLEQFSEKFYCSCYSTLSCKEKADVKDTDAVDVCIADGVCIDAFLKPPMETEEPQIFYNASPSTLSHHHHHH
modifications: His tag; PH20sHis N82A
Activity pH 5.5 [1]: YES
Activity pH 7.4 [1]: YES

B3: N166A/N254A: PH20sHis double mutant, SEQ ID NO:208 (protein)
chain: MGVLKFKHIFFRSFVKSSGVSQIVFTFLLIPCCLTLNFRAPPVIPNVPFLWAWNAPSEFCLGKFDEPLDMSLFSFIGSPRINATGQGVTIFYVDRLGYYPYIDSITGVTVNGGIPQKISLQDHLDKAKKDITFYMPVDNLGMAVIDWEEWRPTWARNWKPKDVYKARSIELVQQQNVQLSLTEATEKAKQEFEKAGKDFLVETIKLGKLLRPNHLWGYYLFPDCYNHHYKKPGYNGSCFNVEIKRNDDLSWLWAESTALYPSIYLNTQQSPVAATLYVRNRVREAIRVSKIPDAKSPLPVFAYTRIVFTDQVLKFLSQDELVYTFGETVALGASGIVIWGTLSIMRSMKSCLLLDNYMETILNPYIINVTLAAKMCSQVLCQEQGVCIRKNWNSSDYLHLNPDNFAIQLEKGGKFTVRGKPTLEDLEQFSEKFYCSCYSTLSCKEKADVKDTDAVDVCIADGVCIDAFLKPPMETEEPQIFYNASPSTLSHHHHHH
modifications: His tag; PH20sHis N166A/N254A
Activity pH 5.5 [1]: YES
Activity pH 7.4 [1]: YES

B4: N82A/N166A: PH20sHis double mutant, SEQ ID NO:206 (protein)
chain: MGVLKFKHIFFRSFVKSSGVSQIVFTFLLIPCCLTLNFRAPPVIPNVPFLWAWNAPSEFCLGKFDEPLDMSLFSFIGSPRIAATGQGVTIFYVDRLGYYPYIDSITGVTVNGGIPQKISLQDHLDKAKKDITFYMPVDNLGMAVIDWEEWRPTWARNWKPKDVYKARSIELVQQQNVQLSLTEATEKAKQEFEKAGKDFLVETIKLGKLLRPNHLWGYYLFPDCYNHHYKKPGYNGSCFNVEIKRNDDLSWLWNESTALYPSIYLNTQQSPVAATLYVRNRVREAIRVSKIPDAKSPLPVFAYTRIVFTDQVLKFLSQDELVYTFGETVALGASGIVIWGTLSIMRSMKSCLLLDNYMETILNPYIINVTLAAKMCSQVLCQEQGVCIRKNWNSSDYLHLNPDNFAIQLEKGGKFTVRGKPTLEDLEQFSEKFYCSCYSTLSCKEKADVKDTDAVDVCIADGVCIDAFLKPPMETEEPQIFYNASPSTLSHHHHHH
modifications: His tag; PH20sHis N82A/N166A
Activity pH 5.5 [1]: YES
Activity pH 7.4 [1]: YES

B5: N82A/N166A/N254A: PH20sHis triple mutant, SEQ ID NO:209 (protein)
chain: MGVLKFKHIFFRSFVKSSGVSQIVFTFLLIPCCLTLNFRAPPVIPNVPFLWAWNAPSEFCLGKFDEPLDMSLFSFIGSPRIAATGQGVTIFYVDRLGYYPYIDSITGVTVNGGIPQKISLQDHLDKAKKDITFYMPVDNLGMAVIDWEEWRPTWARNWKPKDVYKARSIELVQQQNVQLSLTEATEKAKQEFEKAGKDFLVETIKLGKLLRPNHLWGYYLFPDCYNHHYKKPGYNGSCFNVEIKRNDDLSWLWAESTALYPSIYLNTQQSPVAATLYVRNRVREAIRVSKIPDAKSPLPVFAYTRIVFTDQVLKFLSQDELVYTFGETVALGASGIVIWGTLSIMRSMKSCLLLDNYMETILNPYIINVTLAAKMCSQVLCQEQGVCIRKNWNSSDYLHLNPDNFAIQLEKGGKFTVRGKPTLEDLEQFSEKFYCSCYSTLSCKEKADVKDTDAVDVCIADGVCIDAFLKPPMETEEPQIFYNASPSTLSHHHHHH
modifications: His tag; PH20sHis N82A/N166A/N254A
Activity pH 5.5 [1]: YES
Activity pH 7.4 [1]: YES

B6: N82A/N254A: PH20sHis double mutant, SEQ ID NO:207 (protein)
chain: MGVLKFKHIFFRSFVKSSGVSQIVFTFLLIPCCLTLNFRAPPVIPNVPFLWAWNAPSEFCLGKFDEPLDMSLFSFIGSPRIAATGQGVTIFYVDRLGYYPYIDSITGVTVNGGIPQKISLQDHLDKAKKDITFYMPVDNLGMAVIDWEEWRPTWARNWKPKDVYKNRSIELVQQQNVQLSLTEATEKAKQEFEKAGKDFLVETIKLGKLLRPNHLWGYYLFPDCYNHHYKKPGYNGSCFNVEIKRNDDLSWLWAESTALYPSIYLNTQQSPVAATLYVRNRVREAIRVSKIPDAKSPLPVFAYTRIVFTDQVLKFLSQDELVYTFGETVALGASGIVIWGTLSIMRSMKSCLLLDNYMETILNPYIINVTLAAKMCSQVLCQEQGVCIRKNWNSSDYLHLNPDNFAIQLEKGGKFTVRGKPTLEDLEQFSEKFYCSCYSTLSCKEKADVKDTDAVDVCIADGVCIDAFLKPPMETEEPQIFYNASPSTLSHHHHHH
modifications: His tag; PH20sHis N82A/N254A
Activity pH 5.5 [1]: YES
Activity pH 7.4 [1]: YES

Continued, in another order:

Activity pH 5.5 [1]: YES
Activity pH 7.4 [1]: YES
B1: N254A: PH20sHis N-glycosylation site mutant N254A, SEQ ID NO:205 (protein)
chain: MGVLKFKHIFFRSFVKSSGVSQIVFTFLLIPCCLTLNFRAPPVIPNVPFLWAWNAPSEFCLGKFDEPLDMSLFSFIGSPRINATGQGVTIFYVDRLGYYPYIDSITGVTVNGGIPQKISLQDHLDKAKKDITFYMPVDNLGMAVIDWEEWRPTWARNWKPKDVYKNRSIELVQQQNVQLSLTEATEKAKQEFEKAGKDFLVETIKLGKLLRPNHLWGYYLFPDCYNHHYKKPGYNGSCFNVEIKRNDDLSWLWAESTALYPSIYLNTQQSPVAATLYVRNRVREAIRVSKIPDAKSPLPVFAYTRIVFTDQVLKFLSQDELVYTFGETVALGASGIVIWGTLSIMRSMKSCLLLDNYMETILNPYIINVTLAAKMCSQVLCQEQGVCIRKNWNSSDYLHLNPDNFAIQLEKGGKFTVRGKPTLEDLEQFSEKFYCSCYSTLSCKEKADVKDTDAVDVCIADGVCIDAFLKPPMETEEPQIFYNASPSTLSHHHHHH
modifications: His tag; PH20sHis N254A

pH 5.5 Activity ([2]; pH 5.5): 2.79 Units/ml
pH 7.4 Activity ([2]; pH 7.4): 3.321 Units/ml
B7: SPAM1-FLKP: C-terminally truncated human PH20, precursor 471 aa (SEQ ID NO:29), mature 436 aa (SEQ ID NO:81) (protein, listed as Homo sapiens)
chain 1: MGVLKFKHIFFRSFVKSSGVSQIVFTFLLIPCCLTLNFRAPPVIPNVPFLWAWNAPSEFCLGKFDEPLDMSLFSFIGSPRINATGQGVTIFYVDRLGYYPYIDSITGVTVNGGIPQKISLQDHLDKAKKDITFYMPVDNLGMAVIDWEEWRPTWARNWKPKDVYKNRSIELVQQQNVQLSLTEATEKAKQEFEKAGKDFLVETIKLGKLLRPNHLWGYYLFPDCYNHHYKKPGYNGSCFNVEIKRNDDLSWLWNESTALYPSIYLNTQQSPVAATLYVRNRVREAIRVSKIPDAKSPLPVFAYTRIVFTDQVLKFLSQDELVYTFGETVALGASGIVIWGTLSIMRSMKSCLLLDNYMETILNPYIINVTLAAKMCSQVLCQEQGVCIRKNWNSSDYLHLNPDNFAIQLEKGGKFTVRGKPTLEDLEQFSEKFYCSCYSTLSCKEKADVKDTDAVDVCIADGVCIDAFLKP
chain 2: LNFRAPPVIPNVPFLWAWNAPSEFCLGKFDEPLDMSLFSFIGSPRINATGQGVTIFYVDRLGYYPYIDSITGVTVNGGIPQKISLQDHLDKAKKDITFYMPVDNLGMAVIDWEEWRPTWARNWKPKDVYKNRSIELVQQQNVQLSLTEATEKAKQEFEKAGKDFLVETIKLGKLLRPNHLWGYYLFPDCYNHHYKKPGYNGSCFNVEIKRNDDLSWLWNESTALYPSIYLNTQQSPVAATLYVRNRVREAIRVSKIPDAKSPLPVFAYTRIVFTDQVLKFLSQDELVYTFGETVALGASGIVIWGTLSIMRSMKSCLLLDNYMETILNPYIINVTLAAKMCSQVLCQEQGVCIRKNWNSSDYLHLNPDNFAIQLEKGGKFTVRGKPTLEDLEQFSEKFYCSCYSTLSCKEKADVKDTDAVDVCIADGVCIDAFLKP
modifications: HuPH20 precursor 1-471; Mature HuPH20 36-471
Expressed in Media (CHO-S cells): YES
